Source: PMC4672576, “Beninese children with cerebral malaria do not develop humoral immunity against the IT4-VAR19-DC8 PfEMP1 variant linked to EPCR and brain endothelial binding” (Malaria Journal, 2015)

B1: VAR19-CIDRα1.1 (domain or fragment)
chain: SVECFHSWAKNLLIDTIRWEHQLKNCINNTNVTDCTSKCIKNCECYEKWIKEKEKEWPQVKGVLKKKDETSHNYYDKLKDVFDRFLFEVKGALDQDEKGKWDQFTKDLEKKFGPSVESAGTANSQDAIELLLDHLNDNATTCKDNNSLAVENCPKTKINP
notes: PfEMP1 IT4-VAR19, CIDRα1.1 domain, residues S580-P739, amplified from IT4 genomic DNA
B2: Recombinant soluble EPCR with a 6x His tag (EPCRH) (receptor, human, UniProt Q9UNN8 18-210, looked up)
chain: SQDASDGLQRLHMLQISYFRDPYHVWYQGNASLGGHLTHVLEGPDTNTTIIQLQPLQEPESWARTQSGLQSYLLQFHGLVRLVHQERTLAFPLTIRCFLGCELPPEGSRAHVFFEVAVNGSSFVSFRPERALWQADTQVTSGVVTFTLQQLNAYNRTRYELREFLEDTCVQYVQKHISAENTKGSQTSRSYTS
notes: Endothelial protein C receptor, human, extracellular region residues S18-S210, amplified from a human lung endothelium cDNA library; glycosylated (migrates at about 40 kDa); also called recombinant EPCR; not shown: His6, C-terminal, kept

Key:
[1] = biological target: B2; assay: SPR; EPCRH immobilised on a CM5 chip by amine coupling (1324 RU); IT4-VAR19 proteins injected 180 s, dissociation 400 s; HBS-EP buffer, 25 °C; Biacore X100; global 1:1 Langmuir fit; conditions: both partners purified
[2] = biological target: T1, VAR19-NTS-DBLγ6 (N-terminal region of IT4-VAR19 comprising the full-length DC8 cassette) (Plasmodium falciparum (IT4 strain), UniProt A3R6S3 2-1713); assay: as above; conditions: both partners purified
T1 construct: PfEMP1 IT4-VAR19, Plasmodium falciparum IT4 (FCR3) strain, residues G2-P1713 (NTS, DBLα2, CIDRα1.1, DBLβ12, DBLγ6); synthetic codon-optimised gene; also called NTS-DBLɣ6; IT4-VAR19-DC8 cassette; not shown: His6, C-terminal, kept

Binder | Kd [1] [nM] | koff [1] [s⁻¹] | kon [1] [M⁻¹ s⁻¹] | Kd [2] [nM] | koff [2] [s⁻¹] | kon [2] [M⁻¹ s⁻¹]
B1 | 340 | 0.012 | 35000 | – | – | –
B2 | – | – | – | 52 | 0.0011 | 22000
